Laboratory results as given in patent US20210087522.

Assays:
[1] = molecular target: ScACP, ACP of a putative concanamycin gene cluster from Streptomyces coelicolor A(3)2
[2] = molecular target: T1, APNPCP, CP of an uncharacterized NRP/PK gene cluster from Anabaena
T1 chain: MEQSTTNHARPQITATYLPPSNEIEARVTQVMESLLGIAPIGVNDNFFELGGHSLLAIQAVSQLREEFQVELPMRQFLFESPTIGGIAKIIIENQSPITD

[3] = molecular target: T2, MACP, CP of an uncharacterized NRP/PK gene cluster from M. aeruginosa NIES843
T2 chain: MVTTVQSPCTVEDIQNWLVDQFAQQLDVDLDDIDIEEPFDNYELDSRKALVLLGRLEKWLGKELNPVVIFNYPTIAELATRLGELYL

[4] = molecular target: T3, SsPCP, PCP of a thaxtomin cluster from Streptomyces scabiei 87.22
T3 chain: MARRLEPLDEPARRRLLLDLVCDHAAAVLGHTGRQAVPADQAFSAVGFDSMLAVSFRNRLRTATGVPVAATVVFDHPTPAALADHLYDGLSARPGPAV

[5] = molecular target: T4, SFACP, ACP of the FAS from Synechocystis
T4 chain: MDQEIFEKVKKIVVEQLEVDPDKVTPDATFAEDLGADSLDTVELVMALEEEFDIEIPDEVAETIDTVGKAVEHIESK

[6] = molecular target: T5, AFACP, ACP of the FAS from Anabaena
T5 chain: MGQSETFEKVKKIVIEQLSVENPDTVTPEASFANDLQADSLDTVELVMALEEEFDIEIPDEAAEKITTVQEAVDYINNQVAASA

B1: FPPT, Sfp-like phosphopantetheinyl transferase (PPTase) from Fischerella sp. PCC9339 (protein)
chain: MGSETNHLWLTAPTNLTLLPDDVHVWRISLDRPESELQALQTTLSSDEIARAQRFYFEQHRQRFVAGRGILRTILGRYLGVEPQAVEFTYELRGKPLLADRFADSGVSFNLSHSQDLALCGVSRNRKIGIDVEYMRSVSDVEALAERFFAPREYEVVRSLPSNQQQQVFFRYWTCKEAYLKAIGVGIVQLEKVEISLTLEQPAKLITDEEWSLIELVPGDHYLGAVAIAGQNLDLKYWQY
phosphopantetheinylation of CP (apo to holo), LC-MS; no activity [1]: FPPT shared the same substrate scope as SePPT with the exception of its low activity toward SsPCP | phosphopantetheinylation of CP (apo to holo), LC-MS; no activity [2]: FPPT shared the same substrate scope as SePPT with the exception of its low activity toward SsPCP | phosphopantetheinylation of CP (apo to holo), LC-MS; no activity [3]: FPPT shared the same substrate scope as SePPT with the exception of its low activity toward SsPCP | relative activity (most active PPTase = 100%) [3]: FPPT was not competent to activate SsPCP, APACP, APNPCP, MACP, and ScACP | phosphopantetheinylation of CP (apo to holo), LC-MS; low activity [4]: FPPT shared the same substrate scope as SePPT with the exception of its low activity toward SsPCP | relative activity (most active PPTase = 100%) [4]: FPPT was not competent to activate SsPCP, APACP, APNPCP, MACP, and ScACP

B2: SePPT, Sfp-like phosphopantetheinyl transferase (PPTase) from Synechococcus elongatus PCC7942 (protein)
chain: MQRPNPSDAVPVPSIPSCDRGPIPNPVTWRTSPEPLFLSAQTVHLWRCSLTRSLSSAEQAIVAADCDRAQAYGSNRRHQFLCGRWWLRQLLSLYLPEEPADFRFQLSPTGKPELPQSNLCFNLSHSGSTLLIAIAWQPVGVDVEQPRSRSWLALARRYFPSAELAAMQQSTDCDRWGLASWVCKEAWIKAQGRTLANSLRHLQCAWTANGQPRLSGLGSEESQVQLLQVDPQEQLWAAIAMPAGWNYQTWTAAIIRKNH
phosphopantetheinylation of CP (apo to holo), LC-MS; no activity [1]: SePPT showed no activity toward APNPCP, MACP, ScACP, and SsPCP | phosphopantetheinylation of CP (apo to holo), LC-MS; no activity [2]: SePPT showed no activity toward APNPCP, MACP, ScACP, and SsPCP | phosphopantetheinylation of CP (apo to holo), LC-MS; no activity [3]: SePPT showed no activity toward APNPCP, MACP, ScACP, and SsPCP | relative activity (most active PPTase = 100%) [5]: SePPT demonstrated strong activity toward two ACPs of FASs but no others | relative activity (most active PPTase = 100%) [6]: SePPT demonstrated strong activity toward two ACPs of FASs but no others | phosphopantetheinylation of CP (apo to holo), LC-MS; no activity [4]: SePPT showed no activity toward APNPCP, MACP, ScACP, and SsPCP
